# Assay results published in patent publication US20240336672A1 (INSTITUT PASTEUR, published 2024).
# Substitutions are numbered along the chain they refer to.
# T1: CoV-OC43 Spike ectodomain (OC43-CoV, UniProt P36334 14-1263)
# T1 chain: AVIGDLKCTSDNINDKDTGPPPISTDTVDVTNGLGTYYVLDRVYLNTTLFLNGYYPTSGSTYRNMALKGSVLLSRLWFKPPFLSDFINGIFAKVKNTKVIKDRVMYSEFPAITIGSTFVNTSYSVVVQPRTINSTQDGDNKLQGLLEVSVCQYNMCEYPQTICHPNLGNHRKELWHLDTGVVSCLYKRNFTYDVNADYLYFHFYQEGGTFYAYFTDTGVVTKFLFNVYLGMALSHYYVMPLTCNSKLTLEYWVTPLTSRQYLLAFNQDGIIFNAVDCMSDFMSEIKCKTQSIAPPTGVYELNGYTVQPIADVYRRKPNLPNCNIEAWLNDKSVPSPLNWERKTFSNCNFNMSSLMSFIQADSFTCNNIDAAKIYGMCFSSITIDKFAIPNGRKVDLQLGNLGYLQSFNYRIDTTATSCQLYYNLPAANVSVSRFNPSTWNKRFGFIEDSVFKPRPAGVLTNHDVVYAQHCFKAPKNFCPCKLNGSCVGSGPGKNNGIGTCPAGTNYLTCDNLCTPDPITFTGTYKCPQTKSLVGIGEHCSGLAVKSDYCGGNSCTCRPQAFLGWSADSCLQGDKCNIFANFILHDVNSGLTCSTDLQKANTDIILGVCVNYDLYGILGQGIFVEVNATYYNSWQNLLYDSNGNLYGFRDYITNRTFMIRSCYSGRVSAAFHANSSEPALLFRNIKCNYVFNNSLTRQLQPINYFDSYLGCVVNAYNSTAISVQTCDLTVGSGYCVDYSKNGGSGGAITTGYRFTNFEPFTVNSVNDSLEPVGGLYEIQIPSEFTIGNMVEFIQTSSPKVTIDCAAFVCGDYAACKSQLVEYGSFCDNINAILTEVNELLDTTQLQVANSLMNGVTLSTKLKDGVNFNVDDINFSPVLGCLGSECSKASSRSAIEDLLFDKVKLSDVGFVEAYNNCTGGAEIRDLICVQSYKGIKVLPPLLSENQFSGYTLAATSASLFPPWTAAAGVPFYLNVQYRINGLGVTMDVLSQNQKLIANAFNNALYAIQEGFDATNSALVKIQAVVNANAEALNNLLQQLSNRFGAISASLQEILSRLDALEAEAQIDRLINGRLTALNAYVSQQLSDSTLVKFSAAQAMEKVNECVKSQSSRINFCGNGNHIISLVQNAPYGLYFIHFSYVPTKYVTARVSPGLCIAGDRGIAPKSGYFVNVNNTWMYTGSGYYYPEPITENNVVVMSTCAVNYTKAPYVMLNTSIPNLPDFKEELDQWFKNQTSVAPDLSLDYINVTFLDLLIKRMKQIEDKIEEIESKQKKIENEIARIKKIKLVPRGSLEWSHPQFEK
# B1: Cv2.3194 (recombinant human IgG1) (antibody, V domains shown)
# VH: EVQLVESGGGLIQPGGSLRLSCAASGITVTSNYMSWVRQAPGKGLEWVSVIYPGGSTFYADSVKGRFTISRDNSKNTLYLQMNSLRAEDTAVYYCARDLVVYGMDVWGQGTTVTVSS
# VL: EIVLTQSPGTLSLSPGERATLSCRASQSVSSSYLAWYQQKPGQAPRLLIYGASSRATGIPGRFSGSGSGTDFTLTISRLEPEDFAIYYCQQGVTFGGGTKVEIKR
# B2: Cv2.3235 (recombinant human IgG1) (antibody, V domains shown)
# VH: B1 VH with I27F, T30S, S31R, P53S, L99G, V100D, V101Y
# VL: DIQMTQSPSFLSASVGDRVTITCRASQGISSFLAWYQQKPGKAPKLLIYGASTLQSGVTSRFSGSGSGTEFTLTISSLQPEDFATYYCQRLDSYPPITFGQGTRLEIKR
# B3: Cv2.1169 (recombinant human IgG1) (antibody)
# heavy: QVQLVQSGPEVKKPGTSVKVSCKASGFTFTTSAVQWVRQARGQRLEWIGWIVVGSGNTNYAQKFQERVTITRDMSTTTAYMELSSLRSEDTAVYYCAAPYCSGGTCLDGFDIWGQGTMVTVSSASTKGPSVFPLAPSSKSTSGGTAALGCLVKDYFPEPVTVSWNSGALTSGVHTFPAVLQSSGLYSLSSVVTVPSSSLGTQTYICNVNHKPSNTKVDKKVEPKSCDKTHTCPPCPAPELLGGPSVFLFPPKPKDTLMISRTPEVTCVVVDVSHEDPEVKFNWYVDGVEVHNAKTKPREEQYNSTYRVVSVLTVLHQDWLNGKEYKCKVSNKALPAPIEKTISKAKQPREPQVYTLPPSRDELTKNQVSLTCLVKGFYPSDIAVEWESNGQPENNYKTTPPVLDSDGSFFLYSKLTVDKSRWQQGNVFSCSVMHEALHNHYTQKSLSLSPGK
# light: not shown
# notes: also called Cv2.1169 IgG
# Assays:
# [1] = biological target: SARS-CoV-2 spike, Alpha variant (B.1.1.7), on virus or pseudotyped particles (SARS-CoV-2); assay: cell-based or functional assay
# [2] = biological target: SARS-CoV-2 spike, Beta variant (B.1.351), on virus or pseudotyped particles (SARS-CoV-2); assay: cell-based or functional assay
# [3] = biological target: SARS-CoV-2 spike, Gamma variant (P.1), on virus or pseudotyped particles (SARS-CoV-2); assay: cell-based or functional assay
# [4] = biological target: T2, SARS-CoV-2 spike, Delta variant (B.1.617.2), on virus or pseudotyped particles (SARS-CoV-2); assay: cell-based or functional assay
# [5] = biological target: SARS-CoV-2 spike, Delta+ variant, on pseudotyped particles (SARS-CoV-2); assay: cell-based or functional assay
# [6] = biological target: SARS-CoV-2 spike, Omicron BA.1 variant, on virus (SARS-CoV-2); assay: cell-based or functional assay
# [7] = biological target: SARS-CoV-2 spike, Omicron BA.2 variant, on virus (SARS-CoV-2); assay: cell-based or functional assay
# [8] = biological target: T2, SARS-CoV-2 spike, Delta variant …; assay: cell-based or functional assay; remark: listed apart in the source
# [9] = biological target: T1, CoV-OC43 Spike ectodomain; assay: ELISA, coated spike ectodomain
# [10] = biological target: T2, SARS-CoV-2 spike, Delta variant …; assay: cell-based or functional assay; remark: listed apart in the source
Binder,Pseudoneutralization IC50 [1],Pseudoneutralization IC90 [1],S-Fuse neutralization IC50 [1],S-Fuse neutralization IC90 [1],Pseudoneutralization IC50 [2],Pseudoneutralization IC90 [2],S-Fuse neutralization IC50 [2],S-Fuse neutralization IC90 [2],Pseudoneutralization IC50 [3],Pseudoneutralization IC90 [3],S-Fuse neutralization IC90 [3],Pseudoneutralization IC50 [4],Pseudoneutralization IC90 [4],S-Fuse neutralization IC50 [4],S-Fuse neutralization IC90 [4],Pseudoneutralization IC50 [5],Pseudoneutralization IC90 [5],S-Fuse neutralization IC50 [6],S-Fuse neutralization IC90 [6],S-Fuse neutralization IC50 [7],other results
B1,0.0347 µg/mL,0.132 µg/mL,0.0043 µg/mL,0.0054 µg/mL,0.0343 µg/mL,0.119 µg/mL,0.0052 µg/mL,0.02 µg/mL,0.0099 µg/mL,0.0561 µg/mL,0.0056 µg/mL,0.0544 µg/mL,0.115 µg/mL,0.0066 µg/mL,0.0547 µg/mL,0.0206 µg/mL,0.089 µg/mL,0.0242 µg/mL,0.709 µg/mL,0.0405 µg/mL,"S-Fuse neutralization IC90 [7]: 0.582 µg/mL; IC50, S-Fuse neutralisation [8]: 0.0074 µg/mL"
B2,,,,,,,,,,,,,,,,,,,,,binding result [9]: no binding
B3,0.0055 µg/mL,0.024 µg/mL,0.0016 µg/mL,0.004 µg/mL,0.0142 µg/mL,0.0342 µg/mL,0.0023 µg/mL,0.0072 µg/mL,0.0096 µg/mL,0.0292 µg/mL,0.0086 µg/mL,0.008 µg/mL,0.0341 µg/mL,0.0021 µg/mL,0.0064 µg/mL,0.0036 µg/mL,0.0149 µg/mL,0.265 µg/mL,7.59 µg/mL,0.332 µg/mL,"S-Fuse IC50 [10]: 0.00446 µg/mL; S-Fuse neutralization IC50 [3]: 0.0016 µg/mL; S-Fuse neutralization IC90 [7]: 9.69 µg/mL; binding result [9]: no binding; IC50, S-Fuse neutralisation [8]: 0.0025 µg/mL"
